Measurements as given in patent US20230226096A1 (Orna Therapeutics, Inc., priority 2020, published 2023).

Tested on: HEK293 cells
Type: cell-based, human
Conditions: luminescence from secreted Gluc in supernatant 24 hours after transfection of HEK293 cells; circular RNA encoding Gluc with the named IRES (UTR truncated to 675 nt)

B1: Mobovirus A (nucleic acid)
DNA: TATTCTCCCACAAACCTTCTTGTAACTCTGTTAAGCCTTTTACATCCATGTAATTTAATTTTCTCCACCTAAAAGGATTTCCCCCATGGTCCTTTTTGGCTCGAACAAATGCTACATAGGGTCTTGTTTTCTCCCCCTGGCTCTCTTGCCAGGGTTCCATACCCCAATTCCTCTATTTCCATGATTTTTCATCATGGTTTATTTTTACTGTCTTCTTATTTTCTGAGGTGACCAACTCCTAAGCCGACTGGGTCGCGGAAGCCCGGACTCCTCGCATCACTAGGGTGCGTAGCGATGTAGGCGAAAATATTGGTTGCTAGATGCATACATATAGTGAATTGATACTACACCAAACTCTGTTCTTTTTGAAACTAGCTATTTTCTAAGTAAGGTAGGCTACGGGTGAAACCTTACCATTGCAGGTACGTGAACCGCAACGGACATTTGGCCGAAGACTGGTGTACCCACGTCAGTTATAGGACCTCTTCAACGTTGGTGGACGGCATGTCACTGATTAGTTAGGCTAGTGAATTTAAGTTCAGGGGGTATCTTTTAGCTTAAGCGTGTATTCTAGTAGGACTTGCAGAGCCTCCCCACCTAGGAGGATCTCTGTTTATAGCCCCTTTTCCTTGTTCCGTTAGTTTTCCACACTTTTACAATATTTGATGATTTGTT
- Expression: 3.44E+06

B2: Burpengary Virus (nucleic acid)
DNA: CTCCCCCCCCTTCCCCTTCCCGAGTAGGAGATTGGCATGTATGCTCTACATGCCCGATTCTCTCTTGCTCACTCTCTTAAATCCTGGTGGCGGTCTCGGATTAAACATTTATGTCGTATCTGGGATCGTCTTACTTGGTGGTAATTCCTCTGTTGCCTAGGGACCTCCGGACTGCCGGATTAAAGGTCTCAACAGAGGGCAATGTACAAGGAAGTCATTATACGCTAATTAAGTATTTGATGAATGACTAGTGTGACAGGGCTGAGGAACTCCCCCCGGGTAACCGGTGCCTCAGCGTCCGAAAGACACGTGGATAGGATCCACCCTGTTATACCCAGCACGATGTAATAGTCAAATACCTCTGATTTGTGTAGGATGTATAAATTGTGCATTGTAAATTTTGGGCGTAGAGATGCTCCGAAGGTACCCCGTTTTACGGGATCTGATCGGAGGCTAATTACCCAATGCGCCCTAAATAACTTCATATAATTTCTTTTTCTTTATTCAAA
- Expression: 1.09E+07

B3: Hunnivirus A1 (nucleic acid, listed as Hunnivirus sp.)
DNA: TAACGTTTGGCAAGAACCCTCACCTGTCAATTGGGACCACCACTTTCAGTGACCCCATGCGAAGTAGTGAGAGAGAATAAGCTTTCTTACCCTTCATTTGTGAACCCTTCAGTCGAAGCCGCTTGGAATAAGATAGGAGGAAAAGTTCATTCTAAATGGAGTGAAACATGTACTTCAGAATTTCTAGCACGCGCTGGGCTTTCTTGCGTGTGACGGCACTGTCTTGCCGGAGCTCTCCACACTGACACCCCACGCTTGTGGACCTTGGTGGCAGATGACAACACTGCAGCTGGAATTGAGTGTCTGGTACACTCTGTGTAACAGTGAAAACAATGTGATCACTTCGGTGAGCTAGTAGCCTGTGGACCAACAACTGGTAACAGTTGCCTCAGGGGCCAAAAGCCACGGTGTTTACAGCACCCTACTGGTTTGATTGGAGCAATCCAAGATGTCACAGAGTTAGTAATTGCCAAGCAGTCCGTACTGGTATCTTGACATACCGTGCAGTTTTGGATAGTGAAGGATGCCCTGACGGTACCCATAGGTAACAAGTGACACTATGGATCTAAGCAGGGGCTCACTCTACGCTGCTTTACAGCTGGCTGTGAGTTAAAAAACGTCTAGCTATCCACAACCTAGGGGACTAGGTTTTCCTTTTATTTAGATTACAATTAT
- Expression: 1.61E+06

B4: Hunnivirus A2 (nucleic acid, listed as Hunnivirus sp.)
DNA: ACAGTTTTTGACAAGGACCCTCACCTGTCAATCGGGACCACCACTTTCAGTGACCCCGTGCGAAGTGTTGAGAGAAAGTGAGCTTTCTTACCCTTCATTTGTGAACCCTTCAGTCGAAGCCGCTTGGAATAAGATGGAAGGAAATGTTCATTCTAAATGGAGTGAAACATATACTTAATTTCCAGTGTTTAGTGGTCTTTCCACTAGACAACGGCACTGTCTTGCCGGAACTCTACACACCAACATTCCACGCTTGTGGGACTCAAATGTTGGATGACACAGTTGTAGCTGGAACTGAGTGTTTAGTGCACTCTGTGTAACAGTGAAAACAATGTGATCACTTCGGTGGGCTAGTAGCCTGTGGACTAACAACTGGTAACAGTTGCCTCAGGGGCCAAAAGCCACGGTGTTAACAGCACCCTACTAGTTTGATTGGAGCAATCCATGATGTTACAGAGTTAGTAACTGCCAAACAGATTGTACTGGTATCTTGGCATACCGTGCAACTTAGGATAGTGAAGGATGCCCTGGCGGTACCCATAGGTAACAAGTGACACTATGGATCTAAACAGGGGCTCACTCTACGTTGCTTTACAACTAGCTGTGAGTTAAAAAACGTCTAACTATCCACAACCTAGGGGACTAGGTTTTCCTTTTTATTTTTATACACAACTA
- Expression: 6.38E+06

B5: Ia Io (nucleic acid)
DNA: GGTGTCCGGGTGTGTGGGATAGACCCAGATGTGCAGTGGATGCGAGCATTTGAGTCAGAGTAGGAGCAAGCCCAGGGGCAAAGGGACCACATTGTGTATCCCGAATGAAGGATCGAGATTTCTCTCCTCATTACCCGGTGTCTTGTCACTGTTGGGGGGGCCCAACAGTCTTAGTCCTATACTGCCTGATAGGGTCGCGGCTGGCCGGACTCAAGTGCTATAGTCAGTTGATTTTCACTC
- Expression: 1.35E+06

B6: ABPV (nucleic acid)
DNA: CCCGTCAAAATAACAACTTATAACACGATGTTACCCGAAGAAACCATTTTAGTGTAACATTTAAGATTAGAAGTAGTTCATCTAATAGAGATAGGCACTATTAGAAGGAGGCCTTTTCTAAAGGAGCCGTTAGTCAGCCCAGACAAGCGCAGTACTTTAGAAGAGAGAAGTTCCCCGATAGCGACCGAAAAGACGCGTTTTCCGTGCTAACTAATTTAAATGTGGGAACGAATATTATTATTGAAATTATGTGAGCCACGTAGCAATCAAGTCATGTTTTTGTCACTACGTTTACTCATCTAATGTAGATAATTTTGTTTAAGTACCTATTTAGGTGTCATCCCACCAGAGAAGAAATAATACGTACCGGAACCCAGAGTACACCCCTTATTTTAAGCCTTACTGGGCTTCTCTGTTAGTTAGTAATCTGGCCCACGTTTTGCGTTGAGTGGGGTCCCAACAGTAGGAATTCGACGGACAAGTAGCAAGCGAGTCGGTACCAATTGGTTTAGCCTTCGAAATTACTCTGGGCAGGAAGTTACTAAACGAGAACTTTCTGCTTAAATCCCAACGCACAAACAAATAGAGTAAATAAATAATTATA
modifications: Acute bee paralysis virus
- Expression: 6.48E+05

B7: BRAV-2 (nucleic acid)
DNA: TTTGTTTTGCGGCTTTGCCGTTGTTCGGGTTTTACCTGTTTTCACACAGCAAAACAGGCCTTCTAGTTTCGTGCTTAAACGAGATCATGCTCGAACTAGAACTACATAGCTGGTCACTGGACTCATACCACACCTTGTGGAGCTTTATGGGAAAGGTGGCTAGTGGGCTGTGGAAGTGACTCTGACCACATGCCTCTCAAGTGTGGGAAATCACGGATCGGTGTAGCGACGACAACAGGCCTTGGGACACCCTCTCCAGTAATGGAGACCCAAGGGGCCAAAAGCCACGCCTCGTGCCCTGTTGTTCACAACCCCAGTGCGACCCGTGTTAGTACCTATTTGCGAGAACTGTGTCTGGACAGCTAAACACAACCCTAGTGGGAGACTAAGGATGCCCAGGAGGTACCCGGAGGTAACAAGTGACACTCTGGATCTGACCTGGGGAGAGAGGGCTTGCTTTACAGGCGCCTCTCTTTAAAAAGCTTCTATGTCTCATCAGGCACCGGAGGCCGGGCCTTTTCCTTTTAAAATTACACTTA
modifications: Bovine rhinitis A virus
- Expression: 3.98E+06
